Measured values published in the DeepSol protein solubility set.

Assay: soluble on expression in E. coli; label from the status in PepcDB or PDB records

Sequence	soluble on expression in E. coli
PVSWVLQQAPTVKGLDIQGAHGSVWQGQASSVRWQRQNLGQVNWDFQWSSLFTGKAEFSVRFGRGSDMNIRGRGLVGYSLSDGLYAENLVASIPASKAVEQARLPVPIGVDGQLELNIRHATYAAPWCKTGEGTLVWSASGIQSPVGSLELGPVIADLKCQDSVLTASGEQTSTQVSSAFSAEMMPNQRYSTKAWFKPGADFPSSMGEQLKWLGQPNAQGQYEFDYKGRF	not soluble
QAAPSQVVVIRQERAGQTSVSLLWQEPEQPNGIILEYEIKYYEKDKEMQSYSTLKAVTTRATVSGLKPGTRYVFQVRARTSAGCGRFSQAMEVETGKP	soluble
QCYHGNGQSYRGTFSTTVTGRTCQSWSSMTPHRHQRTPENYPNDGLTMNYCRNPDADTGPWCFTMDPSIRREYCNLTRC	soluble
QEQQQELAQLEMARSALDSLSELICLQDCQGNLLTTNRAFDQFWEGRREEAITATASRVATRKSERKWTTDTQGRSCLLEVNLSSLVSPSGELLGTLSISHDVT	not soluble
QGMISFTQQNEQEADRIGIQVLQRSGFDPQAMPTFLEKLLDQARYSSRPPEILLTHPLPESRLADARNRANQMRPIVVQSSEDFYLAKVRTLGMYNSGRNQLTSDLLDEWAKGNVRQQRAAQYGRALQAMEANKYDEARKTLQPLLAAEPGNAWYLDLATDIDLGQNKANDAINRLKNARDLRTNPVLQLNLANAYLQGGQPQEAANILNRYTFNNKDDSNGWDLLAQAEAALNNRDQELAARAEGYALAGRLDQAISLLSSASS	not soluble
QKPKLLYCSNGGYFLRIFPDGKVDGTRDRSDPYIQLQFYAESVGEVYIKSLETGQYLAMDSDGQLYASQSPSEECLFLERLEENNYNTYKSKVHADKDWFVGIKKNGKTKPGSRTHFGQKAILFLPLPVSSD	soluble
QPVACPDCGPTLRLVDASGAGLPGDPVDQTVELLTEGKIVAIKGLGGYHLAVDAANDAAVAELRRRKHRDEKPFAVMARDMEAVARFALVDSVEARLLTGPEHPIVLLRKRPSTILSGRVAPANGYIGTMLPYTPLHHLLLEERFAALVMTSGNLSDEPISYRDDEAVERLSAIADAFLVHDREIRTRIDDSVIRVFRGSPLFLRRSRGYVPREVRLPVEIP	not soluble
QTLTEEEVLKKLDKEQMRASFEDMRRIMPDLGFEAKGYALSFEQLAQLKIPVIVYLKYRKDDHFSVLRGIDGNTVLLADPSLGHVSMSRAQFLDAWQTREGNLAGKILAVIPKKAETISNKLFFTQHPKRQTEFTVGQIRQARAE	not soluble
QVEFYFSEFNFPYDRFLRTTAEKNDGWVPISTIATFNRMKKYRPVDKVIEALRSSEILEVSADGENVKRRVPLDLTAARNARIEQNQRTLAVMNFPHEDVEASQIPELQENLEAFFKKLGEINQVRLRRDHRNKKFNGTVLVEFKTIPECEAFLKSYSNDDESNEILSYEGKKLSVLT	not soluble
QVPPSFFQRIYRYHREHGGRFGTVHDVGAGIGPYAGELRSQFPHVIVSDIVPKNVQLAEAHLGRDGFRYRAAPVEVADDLPPGSVDLAFATNVMHFADQHAAMQAIATQLRPGGTFACAGFGPARFDDPDIQDVWERISQQGGRILLGMAEHPPDTINVMSRSSKEYNVAPLEPQWFRPGALRIRLNMAQGGITGLLPPERQQEVTDPDFAGPRDVVVYETNEEWRFETDWEGFLQHFRSFPHAGADPAAFTGLLQELKDLLDEGRCLRGCWPATLILATR	not soluble
QVQLQESGPGLVKPSETLSLTCTVSGASISSYYWSWIRQPPGKGLEWIGYIGGEGSTNYNPSLKSRVTISVDTSKNQFSLKLRSVTAADTAVYYCARERLGIGDYWGQGTLVTVSSASTKGPSVFPLAPSSKSTSGGTAALGCLVKDYFPEPVTVSWNSGALTSGVHTFPAVLQSSGLYSLSSVVTVPSSSLGTQTYICNVNHKPSNTKVDKKVEPK	soluble
QYFTGGLSLEPSNQAGFSQSQSASNTAAQDENAQFVAAILGTTETVWNQLLQGQYVEPKLVLYRNMTSTGCGMGQAQSGPFYCPADGKVYIDLSFLEELKKLGASGDFAFAYVIAHEVGHHVQNLLGTSTKVRQAQQAAGKAQANQLSVALELQADCYAGVWGHYVDRQLNLLEPGDVEEGIAAASAVGDDRLQKMAGRAVQPEAFTHGSSADRVKWFNIGFASGKPASCNTF	not soluble
QYRHLLDLQPMLEALSESSFLNQPVEGHGPLGIIAFGIGYNYAMEARKAHSIECRLLKIGQYPLPRTQVNELFEACSEVLVVEEGYPVYEELFRGYFGSAKVRGRMDGTLPRDGELTTDLVAAALGVKPPETATTPEIVVGRPPELCKGCGHRDMFDAINIAIKENADHHVFSDIGCYTLGALPPYNAIHTCVDMGAAITMAKGAADAGLRPAVCVIGDSTFAHSGMTGLLDAVNDRTPVTVIIADNNTTAMTGGQCSSASGSKLVNICIGLGVEEA	not soluble
QYRHMIGQDAGYKAAGLYYVPIESLDQQQLPVVIEKLKALPEVEGYTLTTALPASSGQSGDNLIDPVTDRELINVADLFYVDEHYLKVYDIELLEGKNFDAATEKDREIMLSKKAATELARLMNWKDGVIGKNIILTSFGRVVIRGVYDDLMLRRQHLSPYPEKLPSAIVYGDDWLHYLTIRLRHDDARLLHRVNGILSEADPYKETSFLGVEMELLSRFEAAKTFRNT	not soluble
RAGHIEVAEVEGMSFPVKLDTGADVSSINAKDIKLFQKDGKDMVSFTYENDLGMQKAFTREVVDVMKITAKKGEKANVRPVVEMHVKLGELEKKIRVNLQDRGRFHYSMILGKNFLKHGALVASETNYIVTKKPDYEK	not soluble
RELIRHGAEVHAVMSEAATKIIHPYAMEFATGNPVITEITGFIEHVELAGEHENKADLILVCPATANTISKIACGIDDTPVTTVVTTAFPHIPIMIAPAMHETMYRHPIVRENIERLKKLGVEFIGPRIEEGKAKVASIDEIVYRVIKKLHKKTLEGKRVL	not soluble
REVYVLVIGETARACNFGLYGYERNTTPLLDKMEGVVTFTDVLTQSNTTHKSVPMLLSAASAEDYDCLYRQKGIITAFKEAGFHTAFFSNQLPNHSFIDFLGMEADDWKFIKKDAPKGANISDDELLFLVEKELKAGHQKLFIVLHAYGSHFNYKERYPESMSVFKPDNLTDAKYENKEYLMNAYDNTIRYTDGFLASLITLLQKTNSFSAMLYTSDHGEDIFDDNRKLFLHASPVPSYYQLHVPFLIWLSKTYREKNVEVHEAILQNREKPVAGNASVFHTMLNLAGVQTPYRADSLSVAN	not soluble
RFEHSLGVYHLADRALAHLDISGTRADTVRAAALLHDIGHGPYGHQTEGIIQRRLDRHHDDVAHLVSNGEPGAVLAAHGLDPDRVAALVAGHGKLGQLVAGELDVDRMDYLVRD	soluble
RHLCESRQQAQRWIRAGAVHVNHIPIDKPGTLVAVDATIQVKAKPAYVSRGGEKLAHALGVFPVVVRDRVCLDGGISTGGFTDCLLQAGAQLVYGIDVGYGQVDWKLRQDPRLILRERTNLRYLTPADLYTDDGPRPDLGVVDVSFISLTKVLPALWELLLPPRELIALIKPQFEVGRDRLGKNGVVRDAKARQEAVDQVITAAAALGWQCYGVTPSPILGPAGNQEFLAHFCCGANGVLENEMVS	not soluble
RIKEKTISHWVAMQGIAMIQLNLLRTSQSQESTQATTMLGQKWYWRAKISPTPIKRMQQITISVSSKQAGPFREELIAFRYLP	not soluble
RKEEVLFGSFRLFTVTPVRYIKEIVTIGFPASIQNLIYASISMVLTRLVTGWGDTAVAIQRVGGQVESVSWMVGEGFAAAVNSFTGQNFGAGLFDRVKKGFSAAVK	not soluble
RNQVEHEAKVSLAKSFGAGIAHEMRNPLSGLCTSIDVIQSVLPNKKAMGEKDQYVMSGEDVTLLREVSEDAMNIIHSGNETIDLLLTSIDENRVSRSSFKRYSAQSVVEKAIESFSYKRSTDRFAISFDARSEFDFLGSDTLLKYVMYNLFKNAFHHRSSDEFHIHVSMQSNDTANQIVVTDNGSGIAPDVIRHIFQDFYTTGKSGSYGLGLPFCKKVMRSFGGNIKCISQPGEWSQFTLTFPPITSDTVTEIKDELTKMKSILLVSNQDIIVQKMADISRFMGFDVTVLDVKSVFKKKEYEFEFDLIFVDVESLDVLENQLDRIESLLSFTEARVVYLFEHKPAQRAKKVGHDPIWVETQAWLLNTKATIERLLYDSTYISSTLPSAPL	not soluble
RPNVERDAQRRVNIRVTDEIVTALNERRIVMAFEPVVQAVSRAPAFHECLVRMKQDDGELLLAPDIVPVAEKLGLIRLVDHRVLELVVAELAAAPGVELSLNISPDTTMDADWWASIESLLGANPGVAERLIVEITETVAIQDLDDVRGFVNRLKNFGARIAIDDFGAGYTSFRNLRNLGVDIVKIDGAFVQNIARSADDRAFVQTLIDLARRLEIKTVAEWVQDEASAIMLRDWGCDYIQGRLIGLA	not soluble
RPRGPRAVFILPVTAQGEAVLIRQFRYPLRATITEIVAGGVEKGEDLGAAAARELLEEVGGAASEWVPLPGFYPQPSISGVVFYPLLALGVTLGAAQLEDTETIERVVLPLAEVYRMLEAGEIQDGPSSLTLWQARGELTRRGLL	soluble
RQLALEAKGETPSAVTRLSVVAKSEPQDEQSRSQSARRIILSRLKAGEVDLLEEELGHLTTLTDVVKGADSLSAILPGDIAEDDITAVLCFVIEADQITFETVEVSPKISTPPVLKLAAEQAPTGRVEREKTTR	soluble
RSECMGFFRRLLGLSWISIPKLPKKERKNNHDESENESLGNGYDTGESENLSGYLNNSEYEDGPAGESADDPDDYIPPHKEEGENDSSQSIQMGSMTVELAQEEEKADEALLAEIKTDPRMDLASYKFPSVDLLTQYDLQQPPIDMNEIEENQKRIIATLDSFKIHVTPIKATVGPTVTLYEVAPDSGIKISRIRNLEDDIAMSLKAVGGIRIIAPMPGKGTIGIEVPNRKPQTVSMYSVLTSKKYQESDMDLPVALGKTITNEVFIFDLCKMPHLLIAGATGQGKSVGLNAMITSLLYKKHPAELKFVLVDPKMLEFAVYEAIERHYLAKLPDEDRAIVTDMTKVVPTLNSLCIEMDNRYRMLTEARVRNIKEYNDQIISGKLSRLHGHKFLPYIVLIVDEFADLIMTSGKEVERPITRIAQKARAAGIHMVVATQRPSTDIITGIIKANFPARIAFKVFSMIDSRTILDQPGANQLVGRGDMLFYQGKDTVRLQCAFLDTPECEAVTHHISLQESYTSAYELPEYVPEGEEGGPKAFNPQEKDPLFEEVARMVVNSQQGSTSNIQRKFNIGYNRAGRLMDQLEGAGIVSPQDGSKPRQVLIQDEMSLERLFETLR	not soluble
RSVAAPLVKLRKATQNIKEGNLDFVLDVEGTDEFSELCRDFEEMRRRLKESAEEKIAMDKENKELISNISHDLKTPITAVKGYVEGIMDGVADTPEKMDRYVRTIYNKTNEMDHLINELTFYSKIDTNRIPYTFSKLNVEDYFSDCAEEVGLELETRGIQLCYANYVDKDVLVIA	not soluble
RSVAYDLIFGNKNTTKYYAQFVKEHKTHLYEQIKQINNDEFRFVEKTKRHNLG	not soluble
RYDKPGDKIDDGTELKLKGEKLKYVSRGGLKLEKGLHVFGVSVANQIGIDIGASTGGFTDVMLQDGAKLVYAVDVGTNQLVWKLRQDPRVRSMEQYNFRYAQPEDFNEGQPVFASIDVSFISLSLILPALHNVLSDQGQVIALIKPQFEAGREQIGKKGIVKDKQIHEKVIQKVMDFASGYGFTVKGLDFSPIQGGHGN	not soluble
